{"source": "paper PMC6036246", "about": "“SAV4189, a MarR-Family Regulator in Streptomyces avermitilis, Activates Avermectin Biosynthesis” (Frontiers in Microbiology, 2018)", "data": [{"system": "T1, His6-SAV4189 (Streptomyces avermitilis), ORF:1042fb45", "T1 sequence": "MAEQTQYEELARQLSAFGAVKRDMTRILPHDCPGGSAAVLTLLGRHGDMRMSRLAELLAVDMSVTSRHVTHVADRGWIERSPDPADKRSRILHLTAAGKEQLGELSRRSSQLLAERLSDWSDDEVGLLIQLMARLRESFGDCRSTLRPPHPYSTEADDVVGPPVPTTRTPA", "test": "EMSA", "details": "EMSA as in Luo et al. 2014 (buffer not given), 0.15-0.3 nM DIG probe; footprinting 400 ng probe in 25 ul, 30 min at 25 C", "values": [{"compound": "CATCACACCTCCCGTATTCGTTGCTTAGGGCAACCATAGGAAAGTTGGTTGCCGCAGGCAAACTAAATAGGGTCTTCAGGGATAAAAACTTGGCAAAGGCAAGTATTGGCAGGCGTAAAGCCGCAGGTGGGGAGGTCAGGAGCGGTCG (double strand) [4189p]", "binding": "binds"}, {"compound": "GACGACTCATATGCGGCAGGCCCTCCCCAGGACGTCGACAGCCGAAAGGCCTTTGGTTGTCCCCACAACCAGTTGTGACGAGACGACTCTATCCAGCAATCGCCCTCCCGCATATCCACTCGTCAAAGGCAACCCTCTCGGGCCATCTGTGCAGGTCAAGTGACCGGAGGGTAGCTAAGACCGTACCGCGCGGCAGTGCCCGAGCGGTGCGGCCTTGGCAACGTTGATC (double strand) [savR1p]", "binding": "no binding"}, {"compound": "TGACCCCTCCCGCCACTTCCCCCGGCACTTTCCATCGCTTCTCGCCGTGAATTGCAGAGATTCCCCACACACTTATCCCGTTATTAATTCAGAACAGCTTCCCGCATTCTTCTGCCCGCTTTCTTTCGTGCTAAACGCAAAGATTTCGCGAACACCAACCGGCTTAATTCGGGCAGGTCCCGCACGGGTCGTCCACTTGTGATCGACTCCACATCGCACCCCTTTCCTCCCGTATTTTCCGGACAAAATGGGGGTTATCGACGC (double strand) [ectAp]", "binding": "binds"}, {"compound": "TCATGGGATCTCCGGTGCCGAAGAGGGGACGAGAGCCACTCGGATTTTCTATGGTTAGGCTTACCTAAGTCAACGGGTTCCCGACATCCCGTCGGTAAAATCGTACCCCCGATTCCGATCAAGCCCACAGGAAAAGCCCGCCCCCCGAAGGGAGCGGGCTTTCGCGCGGCGGGCGGGACTACGGCAGCGTCAGGATGTCCGCCCCGCTGTCCGT (double strand) [hmuOp]", "binding": "binds"}, {"compound": "CGTGTTCACTTCAGAAACCTCCCTGACGAGGCCGCGACGTTGCGGCCGAGGTGGCTGGAAGTCAACTCGGCCACACGTGCGACGTCAAGAAGTAAATACTTAACGAGATGGCAACGGTGCCATGCGTTCTCTAAGTGAAGGCAGGGGTGGCCGCGGAAAGCGTGCCATCCAAAAGGGTCGAATCGCCCATCTCGCTCAACGCGAGAGCGAGCGCTCCGAGCACCTCGGCGCGGCCCCCAAGTGCCCCTGGAAGCACCGAGAGTTGAC (double strand) [xylFp]", "binding": "no binding"}, {"compound": "GACTGCCGGAACTCCATGCGCTGTGCCCTCCGGTTCGTGGTGTTACTTGGTTTTACCAAGTCAGAGCTTGGAAAGTCCAACAACATGTCTAGACTGCGTCGCATGCCACCTCGCCGAAGCTACGACCAGTACTGTTCCGCGGCCCGAGCCCTCGACGCCGTCGGTGACCGCTGGACCCTCCTGATCGTCCG (double strand) [aspB1p]", "binding": "binds"}, {"compound": "TTGATGACCTCGACCATGTGCACCGGGATACGGATGGTGCGGGCCTGGTCGGCCATGGCGCGGGTGATCGCCTGACGGATCCACCAGGTGGCGTACGTGGAGAACTTGTAGCCCTTGG (double strand) [hrdB]", "binding": "no binding"}, {"compound": "AATTGCTGGCCGAAGCCCGCGCGGGTGTGCAGGTCTGAAACCGCCGGGGGTGAGGTTAGGGGGGTGGGAAAACCTAGGGGTTGGTCCCCGGGGTGGCGCCGGATAGTGTCGAAACGGCTGAAACAGCATTACTGGAGCGGTTGAGAAAAGCAATCCCAGATTCTGTGCCAACGCGGGGAGAACGAGTGGAACTGGCGGATTCCGGCGACCTTTTGGAAATATTCGAGCGTACCGAGGAAATGGCGCGGCTCGCGCATGTGCTGGCGAGTGCCGGACAGGGCGAAGGCGGTGTGGTCCTCG (double strand) [olmRIIp]", "binding": "binds"}, {"compound": "TCCGGACTTGACTGATCTCGACAGTACTTGGCGCACTTGGCCCACTTGGGATCATTGCGGCGGTTGTTACCGCCCGTAAAGCACCATAAGCGCAGCGGGCGGGAGTTCAAACCCGATCAGCTTGGATAAGGTAAGCCTTACCTGTCAACGATCGTGAAGTCGGTGGTCCCCGCATGCCCTCGCCCGTCGCGGATGCCTACGCAAGGCTGACCGA (double strand) [2073p]", "binding": "binds"}]}, {"system": "T1, His6-SAV4189 (Streptomyces avermitilis), ORF:1042fb45", "test": "competition", "details": "EMSA as in Luo et al. 2014 (buffer not given), 0.15-0.3 nM DIG probe; footprinting 400 ng probe in 25 ul, 30 min at 25 C", "values": [{"compound": "CATCACACCTCCCGTATTCGTTGCTTAGGGCAACCATAGGAAAGTTGGTTGCCGCAGGCAAACTAAATAGGGTCTTCAGGGATAAAAACTTGGCAAAGGCAAGTATTGGCAGGCGTAAAGCCGCAGGTGGGGAGGTCAGGAGCGGTCG (double strand) [4189p]", "binding": "binds"}, {"compound": "TTGATGACCTCGACCATGTGCACCGGGATACGGATGGTGCGGGCCTGGTCGGCCATGGCGCGGGTGATCGCCTGACGGATCCACCAGGTGGCGTACGTGGAGAACTTGTAGCCCTTGG (double strand) [hrdB]", "binding": "no binding"}]}, {"biological_target": "T2, SAV4189 (His6-SAV4189) (Streptomyces avermitilis, UniProt Q82FR3)", "T2 construct": "gene SAVERM_4189; full-length, 171 residues (516-bp CDS), His6-tagged from pET-28a(+) (NdeI/EcoRI), E. coli BL21(DE3), Ni-NTA; tag removal not mentioned; MarR family said to be generally homodimeric", "T2 sequence (Q82FR3 1-171)": "T1 sequence", "test": "EMSA, release of SAV4189 from DIG-labelled promoter probe […]p", "format": "binding", "details": "62.5 nM His6-SAV4189, antibiotic in water", "values": [{"compound": "CN[C@H]1C[C@@H](N)[C@H](O)[C@@H](O[C@@H]2O[C@H](CO)[C@H](O)[C@@H]3OC4(O[C@H]23)O[C@H]([C@@H](N)CO)[C@H](O)[C@H](O)[C@H]4O)[C@@H]1O", "note": "(stereo partly drawn) [HygB, hygromycin B]", "EMSA, release of SAV4189 from DIG-labelled promoter probe 4189p": "SAV4189-4189p complex was disrupted in dose-dependent manner by exogenous HygB and Thi"}]}]}
